Values of other authors in PMC3309041.

Biological target: IL-8 (monomeric) (Homo sapiens) (UniProt P10145)
Conditions: cited from earlier work

Sequence of IL-8 (monomeric) (Homo sapiens) (P10145 28-99): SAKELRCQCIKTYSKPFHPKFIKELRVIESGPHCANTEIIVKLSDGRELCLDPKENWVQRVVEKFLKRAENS
Sequence of CXCR1 N-terminal peptide N-terminus (P21109 11-44): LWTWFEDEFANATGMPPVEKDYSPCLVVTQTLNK

CXCR1 N-terminal peptide N-terminus (from UniProt P21109)
Kd: 8.6 µM
